Here are results for two molecules from paper PMC6553528, “An Interaction Network of the Human SEPT9 Established by Quantitative Mass Spectrometry” (G3: Genes|Genomes|Genetics, 2019).

In this assay the target is T1, 6his-SEPT9 (human, UniProt Q9UHD8 2-586).
T1 construct: SEPT9 isoform 1 (SEPT9_i1), human; PCR amplified from the GFP-SEPT9_i1 plasmid and cloned into the in-house plasmid pES; The forward primer reads ENLYFQG (a TEV site, surmised) followed by KKSYSGG, i.e. SEPT9 from its second codon; the reverse primer ends with PEAPEM and stop codons; also called 6his-tagged SEPT9; 6his tagged SEPT9; source: E. coli, purified (IMAC, approx. 70% purity; desalted …)
T1 sequence (looked up): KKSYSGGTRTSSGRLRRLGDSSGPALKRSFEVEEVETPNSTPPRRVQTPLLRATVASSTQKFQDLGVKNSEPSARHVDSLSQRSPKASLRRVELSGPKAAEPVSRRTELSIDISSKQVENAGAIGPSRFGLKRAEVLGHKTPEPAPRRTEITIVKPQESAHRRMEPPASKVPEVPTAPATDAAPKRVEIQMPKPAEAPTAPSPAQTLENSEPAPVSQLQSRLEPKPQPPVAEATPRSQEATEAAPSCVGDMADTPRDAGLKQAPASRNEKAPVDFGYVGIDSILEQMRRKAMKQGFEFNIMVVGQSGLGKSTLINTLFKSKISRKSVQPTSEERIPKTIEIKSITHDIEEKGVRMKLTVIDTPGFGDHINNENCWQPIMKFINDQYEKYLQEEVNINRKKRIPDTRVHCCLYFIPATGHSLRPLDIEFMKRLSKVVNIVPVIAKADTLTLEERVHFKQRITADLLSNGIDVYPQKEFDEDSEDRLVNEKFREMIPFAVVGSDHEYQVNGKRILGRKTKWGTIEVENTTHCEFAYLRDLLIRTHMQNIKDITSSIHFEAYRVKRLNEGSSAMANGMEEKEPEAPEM
The experiment in a line: pull-down; GST fusion proteins immobilized on Glutathione Sepharose from the crude extract, incubated with 2 µM 6his-SEPT9 for 1 h in PBS; Western blot with anti-6his and anti-GST. Particulars: both partners purified.

B1: GST-MYO6_(835-1294) (domain or fragment, UniProt Q9UM54 835-1294, looked up)
chain: PRIDGLVKVGTLKKRLDKFNEVVSVLKDGKPEMNKQIKNLEISIDTLMAKIKSTMMTQEQIQKEYDALVKSSEELLSALQKKKQQEEEAERLRRIQEEMEKERKRREEDEKRRRKEEEERRMKLEMEAKRKQEEEERKKREDDEKRIQAEVEAQLARQKEEESQQQAVLEQERRDRELALRIAQSEAELISDEAQADLALRRSLDSYPVSKNDGTRPKMTPEQMAKEMSEFLSRGPAVLATKAAAGTKKYDLSKWKYAELRDTINTSCDIELLAACREEFHRRLKVYHAWKSKNKKRNTETEQRAPKSVTDYDFAPFLNNSPQQNPAAQIPARQREIEMNRQQRFFRIPFIRPADQYKDPQSKKKGWWYAHFDGPWIARQMELHPDKPPILLVAGKDDMEMCELNLEETGLTRKRGAEILPRQFEEIWERCGGIQYLQNAIESRQARPTYATAMLQSLLK
notes: Cloned in pGEX2T; also called C-terminal tail fragment of MYO6; source: E. coli, immobilized on Glutathione Sepharose from the crude extract; not shown: GST, N-terminal, kept
Take B1: the binding result is listed as “binds”.

B2: GST-MYO1C_(809-1063) (domain or fragment, human, UniProt O00159 809-1063, looked up)
chain: LDHVRTSFLLNLRRQLPQNVLDTSWPTPPPALREASELLRELCIKNMVWKYCRSISPEWKQQLQQKAVASEIFKGKKDNYPQSVPRLFISTRLGTDEISPRVLQALGSEPIQYAVPVVKYDRKGYKPRSRQLLLTPNAVVIVEDAKVKQRIDYANLTGISVSSLSDSLFVLHVQRADNKQKGDVVLQSDHVIETLTKTALSANRVNSININQGSITFAGGPGRDGTIDFTPGSELLITKAKNGHLAVVAPRLNSR
notes: Unconventional myosin-Ic (MYO1C), C-terminal tail fragment, amino acids 809-1063, amplified from cDNA of 1306 fibroblast mRNA; Cloned in pGEX2T; also called C-terminal tail fragment of MYO1C; source: E. coli, immobilized on Glutathione Sepharose from the crude extract; not shown: GST, N-terminal, kept
Take B2: the binding result was “binds”.
